According to publication doi:10.1101/2023.09.20.558696:

Tests used:
Test in all cases: co-IP
[1] = biological target: LtPP1-8e I360A, Pd-tagged (L. tarentolae)
[2] = biological target: LtPP1-8e 260LP261 to alanine, Pd-tagged (L. tarentolae)
[3] = biological target: LtPP1-8e F305A, Pd-tagged (L. tarentolae)
[4] = biological target: LtPP1-8e 263-265A, Pd-tagged (L. tarentolae)
[5] = biological target: LtPP1-8e 109-114A, Pd-tagged (L. tarentolae)
[6] = biological target: LtPP1-8e D292A, Pd-tagged (L. tarentolae)
[7] = biological target: LtPP1-8e I217A, Pd-tagged (L. tarentolae)
[8] = biological target: LtPP1-8e CΔ23, Pd-tagged (L. tarentolae)
[9] = biological target: LtPP1-8e 359-362A, Pd-tagged (L. tarentolae)
[10] = biological target: LtPP1-8e D290A, Pd-tagged (L. tarentolae)
[11] = biological target: LtPP1-8e 109-134Δ, Pd-tagged (L. tarentolae)
[12] = biological target: LtPP1-8e 310DHK312 to alanine, Pd-tagged (L. tarentolae)
[13] = biological target: LtPP1-8e 354-358A, Pd-tagged (L. tarentolae)
[14] = biological target: LtPP1-8e CΔ11, Pd-tagged (L. tarentolae)
[15] = biological target: LtPNUTS V97A, Pd-tagged (L. tarentolae)
[16] = biological target: LtPNUTS L111A, Pd-tagged (L. tarentolae)
[17] = biological target: LtPNUTS D101A, Pd-tagged (L. tarentolae)
[18] = biological target: LtPNUTS R94A, Pd-tagged (L. tarentolae)

Row | Substance | reduction of co-IP against WT PP1-8e [1] [%] | reduction of co-IP against WT PP1-8e [2] [%] | reduction of co-IP against WT PP1-8e [3] [%] | reduction of co-IP against WT PP1-8e [4] [%] | reduction of co-IP against WT PP1-8e [5] [%] | reduction of co-IP against WT PP1-8e [6] [%] | reduction of co-IP against WT PP1-8e [7] [%] | loss of co-IP against WT PP1-8e [8] [%] | reduction of co-IP against WT PP1-8e [9] [%] | reduction of co-IP against WT PP1-8e [10] [%] | reduction of co-IP against WT PP1-8e [11] [%] | decrease of co-IP against WT PP1-8e [12] [%] | reduction of co-IP against WT PP1-8e [13] [%] | reduction of co-IP against WT PP1-8e [14] [%] | fold decrease of co-IP against WT PNUTS [15] [fold] | reduction of co-IP against WT PNUTS [16] [%] | decrease of co-IP against WT PNUTS [17] [%] | reduction of co-IP against WT PNUTS [18] [%]
1 | LtPNUTS, endogenously HA-tagged (natural protein) | 80 | 80 | 80 | 90 | 80 | 60 | 50 | 80 | 80 | 50 | 80 | 20 | 50 | 30 |  |  |  | 
2 | LtPP1-8e, endogenously HA-tagged (enzyme) |  |  |  |  |  |  |  |  |  |  |  |  |  |  | 5 | 80 | 80 | 50
